The record followed here is patent US20230212549A1, “COMPOUNDS COMPRISING A […] LIGAND AND USE THEREOF” (priority 2021, published 2023).

Test in all cases: radioligand displacement (agonist radioligand), 10 µM
One experiment addresses T1, A2A (h) (human), P29274.
T1 chain: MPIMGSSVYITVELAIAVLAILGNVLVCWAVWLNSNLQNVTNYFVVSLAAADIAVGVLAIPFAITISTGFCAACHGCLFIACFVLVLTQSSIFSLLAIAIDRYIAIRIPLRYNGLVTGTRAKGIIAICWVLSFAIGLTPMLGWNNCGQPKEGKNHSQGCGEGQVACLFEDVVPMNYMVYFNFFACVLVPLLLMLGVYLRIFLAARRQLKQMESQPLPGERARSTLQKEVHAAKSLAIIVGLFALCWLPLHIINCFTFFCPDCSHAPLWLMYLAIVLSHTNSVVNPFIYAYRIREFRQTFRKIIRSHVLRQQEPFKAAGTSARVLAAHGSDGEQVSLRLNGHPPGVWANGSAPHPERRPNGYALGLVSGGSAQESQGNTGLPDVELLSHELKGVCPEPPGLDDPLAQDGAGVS
The note with it: remark: other sources report otherwise.

A further experiment addresses T2, AR (h) (human), P10275.
T2 chain: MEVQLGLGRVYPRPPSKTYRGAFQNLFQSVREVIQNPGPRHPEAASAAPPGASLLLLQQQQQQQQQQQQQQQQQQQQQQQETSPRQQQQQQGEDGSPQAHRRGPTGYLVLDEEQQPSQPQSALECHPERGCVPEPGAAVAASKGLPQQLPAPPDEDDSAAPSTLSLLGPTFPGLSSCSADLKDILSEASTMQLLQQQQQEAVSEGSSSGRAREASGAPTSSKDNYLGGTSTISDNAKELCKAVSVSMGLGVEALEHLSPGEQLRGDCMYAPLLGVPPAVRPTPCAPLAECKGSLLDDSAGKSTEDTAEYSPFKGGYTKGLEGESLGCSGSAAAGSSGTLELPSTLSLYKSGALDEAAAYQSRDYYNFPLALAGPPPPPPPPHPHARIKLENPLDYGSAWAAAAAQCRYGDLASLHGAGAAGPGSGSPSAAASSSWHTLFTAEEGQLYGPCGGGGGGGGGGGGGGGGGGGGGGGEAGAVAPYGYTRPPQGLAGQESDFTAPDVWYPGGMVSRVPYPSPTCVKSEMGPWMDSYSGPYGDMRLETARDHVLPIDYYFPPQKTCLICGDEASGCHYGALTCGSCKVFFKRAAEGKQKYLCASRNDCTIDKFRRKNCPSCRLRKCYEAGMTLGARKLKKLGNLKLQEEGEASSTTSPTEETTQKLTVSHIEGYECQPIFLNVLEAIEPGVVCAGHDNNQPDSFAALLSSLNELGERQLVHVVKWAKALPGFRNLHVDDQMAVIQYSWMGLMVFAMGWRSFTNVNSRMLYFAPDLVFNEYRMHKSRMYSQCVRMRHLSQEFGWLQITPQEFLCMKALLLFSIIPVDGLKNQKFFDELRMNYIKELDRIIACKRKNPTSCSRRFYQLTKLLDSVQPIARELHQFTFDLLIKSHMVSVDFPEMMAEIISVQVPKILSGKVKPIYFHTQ
The note with it: remark: other sources report otherwise.

Another experiment addresses T3, CB1 (h) (human), P21554.
T3 chain: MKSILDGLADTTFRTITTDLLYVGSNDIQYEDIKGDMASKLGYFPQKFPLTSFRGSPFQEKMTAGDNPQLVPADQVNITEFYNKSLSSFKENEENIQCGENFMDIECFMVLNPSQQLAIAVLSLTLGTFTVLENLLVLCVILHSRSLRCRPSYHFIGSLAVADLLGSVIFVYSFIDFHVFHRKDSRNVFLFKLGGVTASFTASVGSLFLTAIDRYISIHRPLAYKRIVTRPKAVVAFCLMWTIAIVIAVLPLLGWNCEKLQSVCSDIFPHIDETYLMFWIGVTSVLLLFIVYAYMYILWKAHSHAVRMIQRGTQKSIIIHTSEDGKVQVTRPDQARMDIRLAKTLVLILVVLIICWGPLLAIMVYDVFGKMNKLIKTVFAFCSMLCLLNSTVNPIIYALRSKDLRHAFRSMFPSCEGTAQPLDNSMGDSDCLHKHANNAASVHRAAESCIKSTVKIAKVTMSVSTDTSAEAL
The note with it: remark: other sources report otherwise.

Another experiment deals with T4, D2S (h) (human), P14416.
T4 chain: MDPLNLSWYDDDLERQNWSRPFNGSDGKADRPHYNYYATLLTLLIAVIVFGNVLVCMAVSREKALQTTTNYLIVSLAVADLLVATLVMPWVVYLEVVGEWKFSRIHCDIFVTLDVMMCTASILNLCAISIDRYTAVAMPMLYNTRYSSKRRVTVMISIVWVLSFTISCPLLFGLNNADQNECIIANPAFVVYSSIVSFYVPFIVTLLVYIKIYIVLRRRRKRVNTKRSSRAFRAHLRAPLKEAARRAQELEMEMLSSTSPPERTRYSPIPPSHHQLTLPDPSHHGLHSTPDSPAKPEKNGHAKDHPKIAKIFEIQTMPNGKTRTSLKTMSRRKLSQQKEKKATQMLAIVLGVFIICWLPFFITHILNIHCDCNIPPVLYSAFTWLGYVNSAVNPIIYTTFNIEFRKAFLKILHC

In another experiment the target is T5, ETA (h) (human), P25101.
T5 chain: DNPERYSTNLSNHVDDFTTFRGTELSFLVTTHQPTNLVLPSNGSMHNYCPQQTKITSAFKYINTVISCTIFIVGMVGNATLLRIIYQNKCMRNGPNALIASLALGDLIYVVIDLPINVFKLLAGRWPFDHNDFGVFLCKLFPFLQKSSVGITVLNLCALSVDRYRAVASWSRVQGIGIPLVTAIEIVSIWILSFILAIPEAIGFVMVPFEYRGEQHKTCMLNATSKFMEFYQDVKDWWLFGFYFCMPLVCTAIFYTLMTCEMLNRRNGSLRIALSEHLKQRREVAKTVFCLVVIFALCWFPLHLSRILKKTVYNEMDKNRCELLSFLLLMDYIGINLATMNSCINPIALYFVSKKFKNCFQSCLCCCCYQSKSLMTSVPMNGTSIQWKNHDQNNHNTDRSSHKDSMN
The settings on record: remark: other sources report otherwise.

Substrate in experiment [1]: N neuronal alpha 4beta 2 (h) (human), P43681
The note with it: remark: other sources report otherwise.

The target of another experiment is V1a (h) (human), P37288. The note with it: remark: other sources report otherwise.
V1a (h) (human), P37288, sequence (P37288 whole entry): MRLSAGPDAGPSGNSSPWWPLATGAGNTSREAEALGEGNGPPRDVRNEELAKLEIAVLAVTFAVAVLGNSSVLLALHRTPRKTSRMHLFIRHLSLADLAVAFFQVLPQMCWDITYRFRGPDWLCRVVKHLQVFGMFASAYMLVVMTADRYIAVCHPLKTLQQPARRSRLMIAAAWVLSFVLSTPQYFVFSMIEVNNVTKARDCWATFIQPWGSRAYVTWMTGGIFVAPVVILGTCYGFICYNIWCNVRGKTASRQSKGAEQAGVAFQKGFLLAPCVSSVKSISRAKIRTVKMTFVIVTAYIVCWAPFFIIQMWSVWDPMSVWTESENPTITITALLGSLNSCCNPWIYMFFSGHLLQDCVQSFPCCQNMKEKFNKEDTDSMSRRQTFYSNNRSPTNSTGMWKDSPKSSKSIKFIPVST
Experiment [2] concerns the target mu (MOP) (h) (human), P35372. The settings on record: remark: other sources report otherwise.

Bridge positions count the residues as written; N and C are the ends.

mu (MOP) (h) (human), P35372, sequence (P35372 whole entry): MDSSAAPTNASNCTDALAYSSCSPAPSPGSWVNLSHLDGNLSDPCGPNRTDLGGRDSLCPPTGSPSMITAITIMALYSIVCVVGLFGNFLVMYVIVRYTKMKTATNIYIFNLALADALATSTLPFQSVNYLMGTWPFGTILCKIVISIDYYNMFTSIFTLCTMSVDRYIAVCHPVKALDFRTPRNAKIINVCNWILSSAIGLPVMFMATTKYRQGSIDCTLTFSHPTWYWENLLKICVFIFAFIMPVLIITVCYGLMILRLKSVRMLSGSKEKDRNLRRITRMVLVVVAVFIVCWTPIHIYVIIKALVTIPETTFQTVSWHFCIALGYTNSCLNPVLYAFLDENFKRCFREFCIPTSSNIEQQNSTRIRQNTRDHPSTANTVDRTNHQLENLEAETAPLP
N neuronal alpha 4beta 2 (h) (human), P43681, sequence (P43681 27-627, chain 1 of 2): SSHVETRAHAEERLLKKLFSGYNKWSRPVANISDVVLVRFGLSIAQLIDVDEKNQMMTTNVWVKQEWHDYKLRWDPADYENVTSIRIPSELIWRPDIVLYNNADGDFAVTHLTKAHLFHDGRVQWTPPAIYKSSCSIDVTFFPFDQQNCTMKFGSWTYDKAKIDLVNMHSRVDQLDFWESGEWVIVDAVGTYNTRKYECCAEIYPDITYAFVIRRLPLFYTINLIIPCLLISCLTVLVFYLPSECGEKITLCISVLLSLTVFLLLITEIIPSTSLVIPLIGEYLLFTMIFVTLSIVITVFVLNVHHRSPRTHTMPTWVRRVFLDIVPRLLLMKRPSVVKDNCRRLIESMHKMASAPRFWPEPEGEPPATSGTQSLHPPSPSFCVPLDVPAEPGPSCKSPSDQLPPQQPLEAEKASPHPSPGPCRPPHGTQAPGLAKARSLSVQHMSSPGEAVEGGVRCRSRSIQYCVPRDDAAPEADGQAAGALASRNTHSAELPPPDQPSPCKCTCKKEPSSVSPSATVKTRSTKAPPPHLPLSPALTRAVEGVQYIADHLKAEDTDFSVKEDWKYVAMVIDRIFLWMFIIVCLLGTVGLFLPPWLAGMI
N neuronal alpha 4beta 2 (h) (human), P43681, sequence (P17787 26-502, chain 2 of 2, further chain): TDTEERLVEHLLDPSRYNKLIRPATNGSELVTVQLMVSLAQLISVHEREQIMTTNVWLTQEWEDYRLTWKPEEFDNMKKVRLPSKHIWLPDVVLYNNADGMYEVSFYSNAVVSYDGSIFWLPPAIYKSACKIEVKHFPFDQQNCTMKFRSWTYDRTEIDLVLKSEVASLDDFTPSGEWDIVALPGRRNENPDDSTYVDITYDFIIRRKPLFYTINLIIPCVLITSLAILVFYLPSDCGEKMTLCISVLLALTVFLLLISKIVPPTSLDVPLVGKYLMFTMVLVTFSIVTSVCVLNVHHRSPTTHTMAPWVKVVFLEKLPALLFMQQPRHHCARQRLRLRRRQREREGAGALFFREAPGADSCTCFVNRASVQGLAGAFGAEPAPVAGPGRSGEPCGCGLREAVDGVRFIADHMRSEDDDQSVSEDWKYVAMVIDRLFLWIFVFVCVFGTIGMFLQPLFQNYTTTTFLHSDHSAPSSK

B1: Hex-[Cys(tMeBn(DOTA-AET))-Pro-Pro-Thr-Gln-Phe-Cys]-OH (peptide)
peptide: Hex-CPPTQFC-OH
modifications: bridge 1-7; not fully specified (bridges); printed as Hex-[Cys(tMeBn(DOTA-AET))-Pro-Pro-Thr-Gln-Phe-Cys]-OH
Take B1: the % Inhibition of Specific Binding in the experiment with A2A (h) (human), P29274 was -16%; with AR (h) (human), P10275, -5%; in the experiment with CB1 (h) (human), P21554, -7%; in the experiment with D2S (h) (human), P14416 it was -7%; with ETA (h) (human), P25101 it was 6%; in experiment [1], -2%. Besides, the % Inhibition of Specific Binding with V1a (h) (human), P37288 is 1%; in experiment [2], -10%.

B2: Hex-[Cys(tMeBn(DOTA-PP))-Pro-Pro-Thr-Gln-Phe-Cys]-Asp-NH2 (peptide)
peptide: Hex-CPPTQFCD-NH2
modifications: bridge 1-7; not fully specified (bridges); printed as Hex-[Cys(tMeBn(DOTA-PP))-Pro-Pro-Thr-Gln-Phe-Cys]-Asp-NH2
For the molecule B2, the % Inhibition of Specific Binding was -4% with A2A (h) (human), P29274; 3% with AR (h) (human), P10275; 5% with CB1 (h) (human), P21554; 15% with D2S (h) (human), P14416; -18% in the experiment with ETA (h) (human), P25101; -8% in experiment [1]. Further, the % Inhibition of Specific Binding in the experiment with V1a (h) (human), P37288 stood at 16%; in experiment [2] it was 2%.
